# Assay results reported in patent US8129336B1, “Inhibitor of the uracil-DNA glycosylase enzyme and uses thereof” (Consejo Superior de Investigaciones Cientificas, priority 2005, dated 2012).
# Entries after “also recorded” stand apart in the source; their conditions may differ.
# T1: UDG of B. subtilis (Bacillus subtilis, UniProt P39615)
# T1 construct: endogenous in cells; host or cells: B. subtilis 110NA [pPR53.p56FLAG] lysate; UDG is the cell's own protein; only p56FLAG is plasmid-encoded
# T1 sequence (P39615 whole entry, looked up): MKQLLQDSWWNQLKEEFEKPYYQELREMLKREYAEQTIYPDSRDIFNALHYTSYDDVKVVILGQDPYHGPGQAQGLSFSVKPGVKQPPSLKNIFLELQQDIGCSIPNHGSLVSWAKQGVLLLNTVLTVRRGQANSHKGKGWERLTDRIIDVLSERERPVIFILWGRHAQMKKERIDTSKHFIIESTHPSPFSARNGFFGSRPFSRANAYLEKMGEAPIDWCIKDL
# Assays:
# UDG of B. subtilis = target: T1, UDG of B. subtilis; assay: Affinity chromatography on anti-FLAG M2 column, co-elution with p56FLAG; assay type: binding; conditions: extract of B. subtilis 110NA[pPR53.p56FLAG]; elution with FLAG peptide; peptide mass fingerprinting
# Description: In order to analyse whether the UDG enzyme is a cellular target of protein p56, affinity chromatography assays were performed. Briefly, the B. subtilis 110NA [pPR53.p56FLAG] strain was grown in LB medium with phleomycin (0.8 μg/ml) at 30° C. to an OD560 equivalent to 10^8 viable cells per ml. The culture was concentrated 10-fold in TBS buffer (50 mM Tris-HCl, pH 7.5, 150 mM NaCl) and was lysed using the French press (20,000 psi). The lysate was centrifuged at 7,000 rpm and 4° C. in the Sorvall-SS.34 rotor for 10 minutes. The supernatant was loaded in an anti-FLAG M2 column (Sigma). The proteins bound to the column were eluted with the TBS buffer containing the FLAG peptide (500 μg/ml) (Sigma). The eluted proteins were precipitated with acetone, re-suspended in the loading buffer (60 mM Tris-HCl, pH 6.8, 2% SDS, 5% β-mercaptoethanol, 30% glycerol) and separated by electrophoresis in polyacrylamide/Tricine/SDS gels (Schagger and von Jagow (1987) Anal. Biochem. 166: 368-379). The gel was stained with SyproRuby (Molecular Probes). As a negative control, an extract from the 110NA[pPR53] strain was used. In a second experiment, protein p56 (2 μg) was incubated with the UDG enzyme of E. coli (0.2 μg, New England Biolabs). After 15 minutes at ambient temperature, the reaction was analysed by electrophoresis in native polyacrylamide gels (16%). The gel was stained with SpyroRuby.
# human UNG2 enzyme = human UNG2 enzyme (Homo sapiens, UniProt P13051); conditions: cited from earlier work
# human UNG2 enzyme, sequence (P13051 whole entry): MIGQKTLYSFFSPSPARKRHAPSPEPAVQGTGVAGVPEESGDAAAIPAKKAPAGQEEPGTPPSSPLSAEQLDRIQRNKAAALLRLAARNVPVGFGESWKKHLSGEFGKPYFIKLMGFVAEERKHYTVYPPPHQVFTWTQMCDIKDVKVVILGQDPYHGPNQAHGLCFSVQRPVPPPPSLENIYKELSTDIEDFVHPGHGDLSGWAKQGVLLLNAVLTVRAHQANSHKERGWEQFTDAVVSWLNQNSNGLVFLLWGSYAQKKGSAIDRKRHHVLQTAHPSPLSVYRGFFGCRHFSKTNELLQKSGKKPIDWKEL
Molecule,interaction / co-elution with UDG enzyme (UDG of B. subtilis),blocking of UDG activity of human UNG2 (human UNG2 enzyme)
p56FLAG: p56 protein that contains amino acid sequence DYKDDDDK (FLAG peptide) fused to the C-terminal end (protein) MVQNDFVDSYDVTMLLQDDDGKQYYEYHKGLSLSDFEVLYGNTADEIIKLRLDKVLDYKDDDDK,protein D was identified to be the UDG enzyme; also recorded: interacts with the UDG enzyme,–
"UGI: UGI protein encoded by the PBS2 bacteriophage, known inhibitor of UDG (protein, UniProt P14739 1-84, looked up) Uracil-DNA glycosylase …: MTNLSDIIEKETGKQLVIQESILMLPEEVEEVIGNKPESDILVHTAYDESTDENVMLLTSDAPEYKPWALVIQDSNGENKIKML",–,blocks the UDG activity of the human UNG2 enzyme
